From patent US20140377289A1, “Metallodrugs Having Improved Pharmacological Properties, and Methods of Manufacture and Use Thereof” (MetalloPharm, LLC, priority 2011, published 2014)
Where no end group is shown, it is not given here. [ ]: non-standard residue; d: D form. Cha = N[C@@H](CC1CCCCC1)C(=O)O

Columns and labels:
[1] = target: T1, B. anthracis lethal factor (B. anthracis), P15917; assay: cell-based or functional assay
T1 chain: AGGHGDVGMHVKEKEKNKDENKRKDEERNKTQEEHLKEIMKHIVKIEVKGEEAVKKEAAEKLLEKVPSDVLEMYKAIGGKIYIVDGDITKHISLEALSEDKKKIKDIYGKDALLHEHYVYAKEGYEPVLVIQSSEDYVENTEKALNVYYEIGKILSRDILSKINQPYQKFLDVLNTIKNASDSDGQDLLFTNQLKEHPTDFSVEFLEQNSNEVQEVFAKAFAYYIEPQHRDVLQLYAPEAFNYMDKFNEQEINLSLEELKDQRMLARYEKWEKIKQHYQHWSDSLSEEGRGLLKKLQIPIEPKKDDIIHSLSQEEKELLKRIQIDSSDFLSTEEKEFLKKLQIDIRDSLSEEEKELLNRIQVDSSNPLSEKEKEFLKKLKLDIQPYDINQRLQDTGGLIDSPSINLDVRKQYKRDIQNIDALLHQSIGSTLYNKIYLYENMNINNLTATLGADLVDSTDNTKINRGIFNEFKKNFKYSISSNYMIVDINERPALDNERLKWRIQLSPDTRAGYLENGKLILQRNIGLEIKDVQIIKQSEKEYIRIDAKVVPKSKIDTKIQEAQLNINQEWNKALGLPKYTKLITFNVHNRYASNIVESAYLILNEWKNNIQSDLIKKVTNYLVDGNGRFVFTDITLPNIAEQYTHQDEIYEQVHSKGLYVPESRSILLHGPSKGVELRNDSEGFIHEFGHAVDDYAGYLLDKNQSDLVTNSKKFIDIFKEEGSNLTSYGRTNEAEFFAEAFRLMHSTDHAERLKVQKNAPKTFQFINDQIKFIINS

[2] = target: T1, B. anthracis lethal factor (B. …)
[3] = target: HCV protease (hepatitis C virus (HCV)); assay: inhibition constant for HCV protease (FIG. 1, left); method not described
[4] = target: HCV protease (hepatitis C virus (HCV)); assay: apparent binding affinity for HCV protease; method not described
[5] = target: HCV protease (hepatitis C virus (HCV)); assay: cell-based or functional assay
[6] = target: T2, metalloproteinase ECE-1 protease, P42892; assay: cell-based or functional assay
T2 chain: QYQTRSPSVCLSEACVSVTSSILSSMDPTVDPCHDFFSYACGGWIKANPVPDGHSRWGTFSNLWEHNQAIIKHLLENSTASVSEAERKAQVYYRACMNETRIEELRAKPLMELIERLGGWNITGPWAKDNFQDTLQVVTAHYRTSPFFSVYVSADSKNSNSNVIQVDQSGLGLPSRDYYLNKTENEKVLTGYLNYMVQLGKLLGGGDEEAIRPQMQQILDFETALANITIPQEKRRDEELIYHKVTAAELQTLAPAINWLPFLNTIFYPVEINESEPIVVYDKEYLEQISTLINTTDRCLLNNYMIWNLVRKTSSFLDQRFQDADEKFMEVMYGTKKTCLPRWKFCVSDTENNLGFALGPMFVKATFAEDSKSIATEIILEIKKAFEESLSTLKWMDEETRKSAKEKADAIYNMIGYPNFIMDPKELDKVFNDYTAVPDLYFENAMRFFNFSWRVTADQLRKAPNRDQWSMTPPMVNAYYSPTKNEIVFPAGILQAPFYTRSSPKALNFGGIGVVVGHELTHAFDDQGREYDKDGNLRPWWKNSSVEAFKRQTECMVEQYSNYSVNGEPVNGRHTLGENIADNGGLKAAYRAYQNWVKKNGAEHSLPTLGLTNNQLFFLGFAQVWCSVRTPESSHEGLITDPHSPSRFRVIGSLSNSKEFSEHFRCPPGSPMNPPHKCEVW

[7] = target: T2, metalloproteinase ECE-1 protease, P42892; assay: apparent binding affinity for ECE-1; method not described
[8] = target: HCV protease (hepatitis C virus (HCV)); assay: affinity of metallopeptide for HCV protease; method not described
[9] = target: T3, S. aureus sortase A (S. aureus), Q2FV99; assay: apparent binding affinity (IC50) for S. aureus sortase A; assay not described
T3 chain: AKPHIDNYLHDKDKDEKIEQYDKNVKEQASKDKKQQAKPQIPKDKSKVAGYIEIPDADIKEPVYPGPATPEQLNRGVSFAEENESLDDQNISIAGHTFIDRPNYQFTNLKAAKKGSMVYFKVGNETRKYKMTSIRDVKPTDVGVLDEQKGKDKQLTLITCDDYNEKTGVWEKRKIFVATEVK

## KGHK (modifications not checked) [Cu-KGHK]
[1]
  kinact: 0.035 min⁻¹
[2]
  Ka: 125000 M⁻¹

## GCHP (modifications not checked) [Cu-GCHP]
[1]
  kinact: 0.077 min⁻¹
[2]
  Ka: 45000 M⁻¹

## GGHGD[dE]LI[Cha]C-OH (also: Cu complex) [Cu-GGHGDeLI(Cha)C-CO2^-]
[3]
  Ki: 0.5 µM
[4]
  Ka: 2e+06 M⁻¹
[5]
  kinact: 0.0014 min⁻¹
  rate constant for inactivation kinact: < 0.083 h⁻¹

## GGHGD[dE]LI[Cha]T (also: Cu complex) [Cu-GGHGDeLI(Cha)T]
[4]
  Ka: 33000 M⁻¹
[5]
  kinact: 0.042 min⁻¹

## GGHGGDF (modifications not checked) [Cu-GGHGGDF]
[6]
  kinact: 0.5 min⁻¹
[7]
  Ka: 80000 M⁻¹

## GGHD[dE]LI[Cha]CP[Cha]DL [Gly-Gly-His-Asp-D-Glu-Leu-Ile-Cha-Cys-Pro-Cha-Asp-Leu]
[8]
  affinity: 10 nM

## GGHLPET (modifications not checked) [Cu-GGHLPET]
[9]
  IC50: > 100 µM

## GGHLPETG (modifications not checked) [Cu-GGHLPETG]
[9]
  IC50: > 100 µM

## GGHGLPET (modifications not checked) [Cu-GGHGLPET]
[9]
  IC50: > 100 µM

## GGHGLPETG (modifications not checked) [Cu-…]
[9]
  IC50: > 100 µM
